From patent publication US8022177B2, “Peptides and calcium regulation in mammalian cells” (The Board of Trustees of the University of Illinois, priority 2005, dated 2011)
Several values for one entry are separate records, joined by “and”; a condition that tells them apart may be missing. Equal entries are not always repeated.

B1: γ6L: rat calcium channel γ6 subunit, long isoform (AF361343), SEQ ID NO:48 (protein, listed as Rattus norvegicus)
chain: MMWSNFFMQEEDRRRTAVGRRRAQEQQNLGLTPEREGKIKLGLLVAIVGATLAVLAVGTEFWVELNTYKTNGSAVCEAAHLGLWKVCIKRLWQADVPAGRETCGPAELPGEANCTYFKFFTTGENAHIFQRTTKKEVNLAAAVIAVLGLTAMALGCLCVIMVLSKGAEFLLRLGAVCFGLSGLLLFVSLEVFRHSVRALLQGVNPETPPAPRLAYEYSWSLGCGVGAGLILLLGGVCFLLLTLPSWPWRSLCPKRGGPTA
B2: γ4: rat calcium channel γ4 subunit (AF361341), SEQ ID NO:47 (protein, listed as Rattus norvegicus)
chain: MVRCDRGLQMLLTTAGAFAAFSLMAIAIGTDYWLYSSAHICNGTNLTMDDGPPPRRARGDLTHSGLWRVCCIEGIYKGHCFRINHFPEDNDYDHDSSEYLLRIVRASSVFPILSTILLLLGGLCIGAGRIYSRKNNIVLSAGILFVAAGLSNIIGIIVYISSNTGDPSDKRDEDKKNHYNYGWSFYFGALSFIVAETVGVLAVNIYIEKNKELRFKTKREFLKASSSSPYSRMPSYRYRRRRSRSSSRSTEASPSRDASPVGLKITGAIPMGELSMYTLSREPLKVTTAASYSPDQDAGFLQMHDFFQQDLKEGFHVSMLNRRTTPV

Target: T1, Cav3.1 (Homo sapiens, UniProt O43497)
T1 construct: expressed in transfected cells; host or cells: HEK-293, stably transfected
T1 sequence (O43497 whole entry): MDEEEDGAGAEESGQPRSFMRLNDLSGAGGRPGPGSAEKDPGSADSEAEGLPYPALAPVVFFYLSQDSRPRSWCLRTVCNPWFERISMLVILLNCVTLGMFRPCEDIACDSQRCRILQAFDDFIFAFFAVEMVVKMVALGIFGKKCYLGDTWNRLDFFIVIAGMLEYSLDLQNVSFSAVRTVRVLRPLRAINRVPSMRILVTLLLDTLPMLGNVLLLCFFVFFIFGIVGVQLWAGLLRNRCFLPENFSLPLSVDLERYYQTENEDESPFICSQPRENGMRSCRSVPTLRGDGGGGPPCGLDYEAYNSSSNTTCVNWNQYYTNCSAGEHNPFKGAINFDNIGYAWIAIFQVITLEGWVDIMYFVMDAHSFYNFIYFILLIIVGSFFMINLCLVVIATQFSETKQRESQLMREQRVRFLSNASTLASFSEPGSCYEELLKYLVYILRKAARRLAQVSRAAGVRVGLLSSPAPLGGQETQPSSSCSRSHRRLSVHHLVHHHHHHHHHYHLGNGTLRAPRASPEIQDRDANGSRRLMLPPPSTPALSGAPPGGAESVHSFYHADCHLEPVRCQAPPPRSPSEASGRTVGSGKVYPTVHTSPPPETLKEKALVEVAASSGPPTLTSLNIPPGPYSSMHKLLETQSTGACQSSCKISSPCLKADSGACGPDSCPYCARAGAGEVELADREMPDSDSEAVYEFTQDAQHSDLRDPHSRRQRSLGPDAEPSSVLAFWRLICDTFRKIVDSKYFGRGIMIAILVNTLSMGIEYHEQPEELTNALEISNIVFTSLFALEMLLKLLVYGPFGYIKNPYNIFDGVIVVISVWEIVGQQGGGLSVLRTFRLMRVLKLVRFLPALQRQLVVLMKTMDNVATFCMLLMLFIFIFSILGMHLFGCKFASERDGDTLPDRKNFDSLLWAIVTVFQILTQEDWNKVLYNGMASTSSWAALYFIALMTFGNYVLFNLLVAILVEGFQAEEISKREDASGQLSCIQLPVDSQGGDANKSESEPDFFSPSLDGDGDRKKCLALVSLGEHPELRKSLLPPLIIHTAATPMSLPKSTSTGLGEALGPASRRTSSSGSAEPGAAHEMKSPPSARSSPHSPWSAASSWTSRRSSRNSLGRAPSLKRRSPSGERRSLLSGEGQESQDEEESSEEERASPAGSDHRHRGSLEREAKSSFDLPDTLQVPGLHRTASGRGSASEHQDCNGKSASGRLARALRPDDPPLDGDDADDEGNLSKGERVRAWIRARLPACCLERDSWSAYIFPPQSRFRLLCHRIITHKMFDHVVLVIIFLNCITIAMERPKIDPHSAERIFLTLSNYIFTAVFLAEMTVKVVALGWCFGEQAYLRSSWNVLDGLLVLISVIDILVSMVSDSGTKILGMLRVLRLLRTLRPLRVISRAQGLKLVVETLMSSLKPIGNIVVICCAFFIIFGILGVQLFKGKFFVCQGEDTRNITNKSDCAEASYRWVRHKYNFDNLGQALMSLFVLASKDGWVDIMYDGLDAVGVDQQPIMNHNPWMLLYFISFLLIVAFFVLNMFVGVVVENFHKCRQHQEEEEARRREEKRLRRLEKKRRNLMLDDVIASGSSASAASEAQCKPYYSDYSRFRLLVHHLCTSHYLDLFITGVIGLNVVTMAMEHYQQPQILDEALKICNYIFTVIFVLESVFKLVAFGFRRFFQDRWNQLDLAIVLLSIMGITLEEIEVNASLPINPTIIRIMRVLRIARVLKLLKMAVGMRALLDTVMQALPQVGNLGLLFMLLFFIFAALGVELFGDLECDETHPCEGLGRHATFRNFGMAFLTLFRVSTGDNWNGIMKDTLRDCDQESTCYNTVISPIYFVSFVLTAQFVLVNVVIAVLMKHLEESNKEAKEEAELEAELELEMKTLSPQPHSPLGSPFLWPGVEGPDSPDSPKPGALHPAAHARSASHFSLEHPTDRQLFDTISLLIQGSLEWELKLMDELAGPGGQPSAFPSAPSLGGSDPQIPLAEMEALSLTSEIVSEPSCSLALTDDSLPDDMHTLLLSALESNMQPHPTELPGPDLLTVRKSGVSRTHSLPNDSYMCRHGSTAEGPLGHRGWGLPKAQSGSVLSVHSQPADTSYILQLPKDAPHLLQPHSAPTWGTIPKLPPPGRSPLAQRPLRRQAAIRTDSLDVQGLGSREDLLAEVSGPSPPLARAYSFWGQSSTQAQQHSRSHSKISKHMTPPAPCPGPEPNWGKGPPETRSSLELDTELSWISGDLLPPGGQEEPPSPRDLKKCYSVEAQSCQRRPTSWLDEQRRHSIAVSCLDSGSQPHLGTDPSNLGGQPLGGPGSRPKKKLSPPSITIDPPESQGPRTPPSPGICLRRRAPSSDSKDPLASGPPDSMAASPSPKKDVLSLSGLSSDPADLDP
Experiment: Whole-cell patch clamp of Cav3.1 current in Cav3.1-HEK cells transfected with γ6, γ4, their first transmembrane domains or point mutants (Example 3)
Type: cell-based
Set-up: Activation K / Inactivation K: unit not given here
Details: for Peak current density: Cav3.1-HEK cells, control 48.43±2.62; for Calcium current density (unit not given): Example 2, control −48.39+/−2.6, fusion series control −46.9+/−5; for Normalized Current Density: relative to vector control (100.0%), Table 3.3
Description: Transfection. HEK-293 cells stably transfected with the Cav3.1 α1 subunit were transiently transfected with vectors containing GFP and γ subunits cDNA when the cultures reached 50% confluency. Lipofectamine 2000 reagent (Invitrogen) was used following manufacturer's protocol.
Electrophysiology. Whole cell Ca2+ currents were recorded at room temperature using an Axon Instruments Axopatch-1D amplifier, a Digidata 1200 interface and pClamp8.0 software about 48 hours after transfection. Cell capacitance was typically around 10 pF, but ranged from 5-40 pF. Recording micropipettes were made from borosilicate glass (2-3 Mohms tip resistance), and filled with solution contained (in mM) 130 NaCl, 10 EGTA, 2 MgCl2, 1 CaCl2, 10 HEPES, 3 Tris-ATP, and 0.3 Li2GTP or 0.3 Tris-GTP. Tyrode's solution was used as the bath solution. It contained (in mM) 137 NaCl, 1 KCl, 1 MgCl2, 0.33 NaH2PO4, 2 CaCl2, 10 HEPES. Both solutions were adjusted to pH 7.4 with NaOH and 280 mOsm with sucrose.
We determined the biophysical characteristics of Cav3.1 currents in transfected HEK-293 cells and effects of the first transmembrane domain of γ4 and γ6 on these properties. Test parameters were optimized for studying Cav3.1 current. The time constant (τ) of deactivation (τdeac) was obtained by single exponential fitting of tail currents. For Cav3.1 currents, the cells were clamped at a holding potential of −100 mV, then depolarized to −20 mV for 4 msec, and repolarized to various voltages from −120 mV to −60 mV at 10 mV interval for 150 msec to elicit tail currents.
The voltage dependence of activation was measured using tail currents. For Cav3.1 currents, the cells were clamped at a holding potential equal to −100 mV, and then depolarized briefly to a conditioning potential, varying from −90 mV to +60 mV, and finally clamped at −60 mV before inactivation. Using this protocol, all tail currents are elicited at the same driving force (at −60 mV), so the current amplitude accurately reflects the number of channels opened during the different conditioning potentials.
A series of conditioning prepulses of 500 msec were used to measure voltage dependence of inactivation in our experiments. Channels initially open and then reach steady-state inactivation during the 500 msec long prepulses. The membrane potential is stepped to a fixed test potential of −20 mV, where maximal peak current is elicited. Currents elicited at each test potential reflect how many channels are not in the inactivated state after a steady-state inactivation; that is, how many channels are available to open. The conditioning prepulse potentials were changed from −120 mV to 50 mV, and the test potential is fixed at −20 mV.
Data collection and analysis. To probe the structural features necessary for the function of γ subunits, we are using HEK-293 cell line stably transfected with Cav3.1 α1 subunit. These cells are then transiently transfected with vectors containing various chimeric, truncated or mutant gamma subunits. […] There is inherent variation in calcium current density in the HEK-Cav3.1 stable cell line likely due to differences in the batch used, passenger number, extent of cellular confluence, or for other unknown reasons. The averaged current density of each test group of cells was normalized to the mean current density of a parallel control group of cells plated from the same batch of cells and analyzed on the same day. A minimum of 5 cells (typically 7 to 10) from each group was used to calculate the mean behavior of test and control cells from each days recording. At least two independent transfections were performed for each test condition. Overall, averages were obtained from 21 control groups of cells that had been transfected with empty vector over several months. The data are pooled together to reduce the variance. […] The current density of the control cells over many months justified the pooling of data recorded from different batches of cells transfected with mutated γ subunits. […]

Row | Molecule | Peak current density [pA/pF] | Calcium current density (unit not given) | Decrease of peak current density from control (TM1 series, vs blank vector) [%] | Activation K (Table 3.2) | Activation V½ (Table 3.2) [mV] | Deactivation τ @−100 mV (Table 3.2) [ms] | Inactivation K (Table 3.2) | Inactivation V½ (Table 3.2) [mV] | Inactivation τ @−20 mV (Table 3.2) [ms] | Time to peak @−25 mV (Table 3.2) | Averaged peak current (group transfected with γ6, n=10) [pA] | Decrease of Cav3.1 peak current density from control (mutant series, control 100%±4.4%) [%] | Normalized Current Density (listed as γ6) | Activation V peak (Table 3.2) [mV] | Normalized Current Density
1 | B1 | 27.85±3.32 | −7.8+/−3.3 | 42 | 11.99 ± 1.39 | −28.12 ± 4.07 | 2.22 ± 0.19 | −5.42 ± 0.34 | −67.53 ± 4.81 | 23.9 ± 1.6 | 9.03 ± 0.57 | −344.2±48.4 | 45 | 55.4%±5.7% and 55.4% | – | –
2 | B2 | 48.28±3.30 | −56.3+/−5 | – | 12.83 ± 0.79 | −31.62 ± 3.24 | 2.20 ± 0.11 | −6.04 ± 0.24 | −67.77 ± 1.86 | 27.3 ± 1.4 | 8.37 ± 0.39 | – | – | – | −29.44±1.89 | 116.02%±11.4% and 116.0%
